Test [1] has as its target T1, biotinylated PD1-ECD-AviHis (human, UniProt Q15116 25-170, biotinylated).
T1 construct: also called huPD1; hu PD1; not shown: Avi-His tag
The test can be described thus: ELISA (hu PD1, as described above). Here is the method: After washing (3×90 μl/well with PBST-buffer) 25 μl/well goat-anti-human H+L-POD (JIR, JIR109-036-088)/Sheep-anti-mouse-POD (GE Healthcare; NA9310) was added in 1:2000/1:1000 dilution and incubated at RT for 1 h on shaker. After washing (3×90 μl/well with PBST-buffer) 25 μl/well TMB substrate (Roche Catalogue No. 11835033001) was added and incubated until OD 2-3. Measurement took place at 370/492 nm.
On the technique in general: An ELISA detects its analyte on a solid surface through an enzyme-linked reagent.

The target in test [2] is T2, hu PD1-ECD (human, UniProt Q15116 25-170).
T2 construct: SPR analyte; also called human PD1-ECD
The test can be described thus: SPR (Biacore T200), antibody captured by anti-human IgG, hu PD1-ECD as analyte, 25 °C, 1:1 Langmuir fit. Here is the method: Therefore, an anti-human IgG was immobilized by amine coupling to the surface of a (Biacore) CM5 sensor chip. […] The sensor chip surface was regenerated after each analysis cycle. The equilibrium constant and kinetic rate constants were finally gained by fitting the data to a 1:1 langmuir interaction model.
(§1) The samples were injected for 20 seconds with a concentration of 10 nM and bound to the second flow cell.
Finally the double referenced data was fitted to a 1:1 Langmuir interaction model with the Biacore T200 Evaluation Software.
For orientation: SPR reads the build-up and loss of mass on a sensor chip optically.

Test [3] concerns the target T2, hu PD1-ECD. The test can be described thus: SPR; row head 'Affinity KD 37° C.'; first of two numbers; first of the two numbers in the cell, row head 37° C.
Test [4] concerns the target T1, biotinylated PD1-ECD-AviHis. In words: ligand replacing ELISA; row head 'IC50 PD-L1, 2 [nM]' (ligand not told apart); competing ligand printed only as 'PD-L1, 2'.
Test [5] has as its target T2, hu PD1-ECD. The test can be described thus: SPR; row head 'Affinity KD 37° C.'; second of two numbers, equal to the 25 °C value of Table 3; second of the two numbers in the cell; only 37° C. is printed, split not explained. Here is the method: as §1
The target in test [6] is T3, biotinylated cynoPD1-ECD-Biotin (cynomolgus, UniProt B0LAJ3 25-170, biotinylated; the site and any Avi or His tag are not stated in the passages shown).
T3 construct: also called cyPD1
The test can be described thus: ELISA on cyno PD1; row head 'cynomolgus crossreactivity (EC50 [nm])'.

For test [7], the target named is T1, biotinylated PD1-ECD-AviHis. The test can be described thus: ELISA on coated biotinylated PD1-ECD-AviHis.
In test [8] the target is T4, full-length human PD1 on cells (human, UniProt Q15116 25-288).
T4 construct: also called CHO-PD1
In words: cell ELISA on CHO-K1 cells expressing full-length human PD1. Here is the method:
(to avoid internalization). After washing carefully (1×90 μl/well PBST) cells were fixed by adding 30 μl/well 0.05% Glutaraldehyde (Sigma, Cat.No: G5882, 25%) diluted in 1×PBS-buffer and incubated for 10 min at RT. After washing (3×90 μl/well PBST) 25 μl/well secondary antibody was added for detection: goat-anti-human H+L-POD (JIR, JIR109-036-088)/Sheep-anti-mouse-POD (GE NA9310) followed by 1h incubation at RT on shaker. After washing (3×90 μl/well PBST) 25 μl/well TMB substrate solution (Roche 11835033001) was added and incubated until OD 1.0-2.0. Plates were measured at 370/492 nm.

The target of test [9] is T2, hu PD1-ECD. The test can be described thus: SPR; row head 'Affinity KD 37° C.'; second of two numbers, equal to the 25 °C value of Table 3.
The target of test [10] is T2, hu PD1-ECD. In words: SPR; row head 'Affinity KD 37° C.'; first of two numbers. Here is the method: as §1
For test [11], the target named is T3, biotinylated cynoPD1-ECD-Biotin. In words: ELISA on coated cynoPD1-ECD-Biotin.
The target in test [12] is T5, human Fc tagged human Lag3 extra cellular domain (human, UniProt P18627 29-450, biotinylated in the epitope binning, the SA CAP SPR and the FACS competition assay).
T5 construct: In-house fusion; also called huLag3-Fc; biotinylated, huFc-tagged huLag3; not shown: human Fc tag
T5 sequence: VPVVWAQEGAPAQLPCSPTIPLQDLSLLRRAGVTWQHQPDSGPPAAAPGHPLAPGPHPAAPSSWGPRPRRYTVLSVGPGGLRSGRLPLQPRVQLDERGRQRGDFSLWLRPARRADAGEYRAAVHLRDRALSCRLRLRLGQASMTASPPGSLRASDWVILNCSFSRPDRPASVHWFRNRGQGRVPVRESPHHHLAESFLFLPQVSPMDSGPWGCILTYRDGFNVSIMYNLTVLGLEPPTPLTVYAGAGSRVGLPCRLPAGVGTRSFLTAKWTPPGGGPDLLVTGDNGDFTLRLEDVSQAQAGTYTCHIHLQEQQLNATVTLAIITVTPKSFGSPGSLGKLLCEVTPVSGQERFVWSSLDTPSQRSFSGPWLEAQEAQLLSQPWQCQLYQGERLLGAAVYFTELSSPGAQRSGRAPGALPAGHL
In words: FACS, inhibition of biotinylated Lag3:Fc binding to MHC-II on A375 cells (competitor MHC-II); antibody 10 µg/ml. Here is the method: This analysis was studied in a FACS competition experiment: A375 cells (ATCC, #CRL-1619) were cultured for 2-3 passages in EM Eagle's medium supplemented with EBSS (PAN, cat.no. #P04-00509), 10% FBS, 2 mM L-Glutamin, 1×NEAA and 1× Sodium Pyruvate. All antibodies, were diluted in FACS buffer to a final concentration of 20 μg/ml in 25 μl (in 96well U-bottom plates). […] A375 cells were washed with PBS and adjusted to 3×10⁶ cells/ml in PBS. 100 μl were seeded per well in a 96well V-bottom plate. Plates were centrifuged and supernatant was removed. […] After this, cells were washed with 200 μl FACS buffer. […] After staining, cells were again washed and then transferred in 150 μl FACS buffer (PBS/2% FBS) to a U-bottom plate and analyzed on a FACS Canto-II using an HTS module.
All antibodies were used at 10 μg/ml final concentration.

Test [13] deals with T6, biotinylated-Lag3 (UniProt P18627 23-450, limits assumed, biotinylated).
T6 construct: Probably a human LAG3 ECD construct; also called Lag3 (MHCII/ELISA)
T6 sequence (looked up): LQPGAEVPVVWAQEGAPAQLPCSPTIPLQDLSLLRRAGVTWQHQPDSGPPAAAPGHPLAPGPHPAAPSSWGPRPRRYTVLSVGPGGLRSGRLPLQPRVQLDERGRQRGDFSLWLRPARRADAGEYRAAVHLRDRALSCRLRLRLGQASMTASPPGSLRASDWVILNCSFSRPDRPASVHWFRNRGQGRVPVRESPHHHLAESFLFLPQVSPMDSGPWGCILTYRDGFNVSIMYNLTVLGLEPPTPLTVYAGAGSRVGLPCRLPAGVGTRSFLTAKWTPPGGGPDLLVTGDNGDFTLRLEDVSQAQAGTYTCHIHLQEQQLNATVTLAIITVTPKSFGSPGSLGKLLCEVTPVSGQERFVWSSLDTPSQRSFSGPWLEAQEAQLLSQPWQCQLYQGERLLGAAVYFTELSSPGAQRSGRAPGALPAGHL
In words: ELISA, inhibition of biotinylated-Lag3 binding to MHC-II on A375 cells (competitor MHC-II); second of two numbers.

Test [14] concerns the target T6, biotinylated-Lag3. In words: ELISA, inhibition of biotinylated-Lag3 binding to MHC-II on A375 cells (competitor MHC-II); first of two numbers.
Test [15] concerns the target T5, human Fc tagged human Lag3 extra …. The test can be described thus: SPR (Biacore T200), huLag3-Fc captured, antibody Fab fragment as analyte, 25 °C. Here is the method: (§2) Therefore two flow cells of a C1 biosensor chip were prepared in a Biacore T200 by immobilizing neutravidin, diluted to 25 μg/ml in acetate buffer pH 4.5, onto it using the ‘immobilization wizard’. […] Then, CaptureSelect™ Biotin Anti-IgG-Fc (Human) Conjugate was bound to the neutravidin, using a 20 μg/ml dilution in running buffer (HBS-EP+, GE Healthcare).
(§3) The method itself consisted of four commands per cycle. […] Second command: sample injection for 120s followed by a 1200s long dissociation at a flow speed of 30 μl/min. Third and fourth command: regeneration by injecting Glycine-HCl pH 1.5 for 30 seconds.

Test [16] has the same target. In words: SPR (Biacore T200), huLag3-Fc captured, antibody Fab fragment as analyte, 25 °C, 1:1 Langmuir fit; monovalent (first value line); bivalent line is tbd. Here is the method:
as §2, §3

Test [17] has the same target. In words: SPR (Biacore T200), huLag3-Fc captured, antibody Fab fragment as analyte, 25 °C, 1:1 Langmuir fit. Here is the method: as §2, §3

T2 sequence (Q15116 25-170 limits assumed): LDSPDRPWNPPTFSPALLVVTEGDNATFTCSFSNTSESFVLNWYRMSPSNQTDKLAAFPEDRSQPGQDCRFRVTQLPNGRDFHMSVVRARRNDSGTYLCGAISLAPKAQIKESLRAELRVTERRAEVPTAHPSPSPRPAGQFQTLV
T1 sequence (Q15116 25-170): as the sequence (Q15116 25-170 limits assumed) above
T3 sequence (B0LAJ3 entry or part of it limits assumed): as the sequence (Q15116 25-170 limits assumed) above, with D2E, P10A, V19L, T35A, Q75R, T144A counted along it
T4 sequence (Q15116 25-288 limits assumed): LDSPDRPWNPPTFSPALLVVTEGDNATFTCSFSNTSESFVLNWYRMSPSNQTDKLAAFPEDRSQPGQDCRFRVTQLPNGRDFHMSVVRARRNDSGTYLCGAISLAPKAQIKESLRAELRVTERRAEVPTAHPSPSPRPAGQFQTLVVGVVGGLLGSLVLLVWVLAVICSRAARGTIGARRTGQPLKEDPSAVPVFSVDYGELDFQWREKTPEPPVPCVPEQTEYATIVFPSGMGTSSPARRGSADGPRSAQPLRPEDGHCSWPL

B1: chimeric PD1-0103 (antibody, human IgG1, V domains shown)
VH: EVILVESGGGLVKPGGSLKLSCAASGFSFSSYTMSWVRQTPEKRLDWVATISGGGRDIYYPDSVKGRFTISRDNAKNTLYLEMSSLMSEDTALYYCVLLTGRVYFALDSWGQGTSVTVSS
VL: KIVLTQSPASLPVSLGQRATISCRASESVDTSDNSFIHWYQQRPGQSPKLLIYRSSTLESGVPARFSGSGSRTDFTLTIDPVEADDVATYYCQQNYDVPWTFGGGTKLEIK
notes: also called chiPD1-0103
B1 returned an EC50 in [1] of 0.2 nM. Moreover, the Kd with hu PD1-ECD [2] is 0.8 nM; with hu PD1-ECD [3], 2 nM; with hu PD1-ECD [5] it was 0.8 nM. The molecule also registered a koff in the test with hu PD1-ECD [2] of 0.000307 s⁻¹. The molecule also registered a kon with hu PD1-ECD [2] of 386000 M⁻¹ s⁻¹. The molecule further yielded an IC50 in test [4] of 1.35 nM.

B2: PD1-0103-0314 (antibody, human IgG1, V domains shown)
VH: EVQLLESGGGLVQPGGSLRLSCAASGFSFSSYTMSWVRQAPGKGLEWVATISGGGRDIYYPDSVKGRFTISRDNSKNTLYLQMNSLRAEDTAVYYCVLLTGRVYFALDSWGQGTLVTVSS
VL: EIVLTQSPATLSLSPGERATLSCRASESVDTSDNSFIHWYQQKPGQSPRLLIYRSSTLESGIPARFSGSGSGTDFTLTISSLEPEDFAVYYCQQNYDVPWTFGQGTKVEIKR
notes: Humanized; also called PD1-103-0314; PD-0103-0314
Consider B2, for which the concentration for a half-maximal effect (EC50) in test [6] was found to be 0.05 nM; in test [7] it was 11 ng/mL; in test [1] it was 0.07 nM; in [8] it was 7.7 ng/mL; in test [11] it was 8.3 ng/mL. Also, the Kd with hu PD1-ECD [2] was found to be 1.5 nM; in the test with hu PD1-ECD [9], 1.5 nM; in the test with hu PD1-ECD [10], 1.6 nM. For the same molecule, the koff with hu PD1-ECD [2] turned out to be 0.000279 s⁻¹. This molecule also had a kon with hu PD1-ECD [2] of 187000 M⁻¹ s⁻¹.

B3: Reference MDX26H10 (antibody, V domains shown)
VH: QVQLVESGGGVVQPGRSLRLSCAASGFTFSSYGMHWVRQAPGKGLEWVAVIWYDGSNKYYADSVKGRFTISRDNSKNTLYLQMNSLRAEDTAVYYCAREWAVASWDYGMDVWGQGTTVTVSS
VL: not shown
notes: also called MDX-26H10 (26H10); aLAG3(MDX26H10)
B3: the “% Inhibition” value in test [12] came out at 71.7%. Also, the results for the IC50 with biotinylated-Lag3 [13] and in the test with biotinylated-Lag3 [14] were 0.6 nM and 0.9 nM, respectively.

B4: aLAG3(0414) Fab fragment (Fab, V domains shown)
VH: EVQLLESGGGLVQPGGSLRLSCAASGFIFDDYTMNWVRQAPGKGLEWVAVISWDGGGTYYTDSVKGRFTISRDDFKNTLYLQMNSLRAEDTAVYYCAKGLTDTTLYGSDYWGQGTLVTVSS
VL: DIQMTQSPSSLSASVGDRVTITCRASQSISSYLNWYQQKPGKAPKLLIYAASTLQSGVPSRFSGSGSGTDFTLTISSLQPEDFATYYCQQTYSSPLTFGGGTKVEIK
Consider B4, for which the koff in test [15] stood at 0.000195 s⁻¹. The Kd in test [16] worked out at 0.463 nM.

B5: aLAG3(0416) Fab fragment (Fab, V domains shown)
VH: EVQLVESGGGLVQPGGSLRLACAASGFTFSDYAMSWVRQAPGKGLEWVSGIDNSGYYTYYTDSVKGRFTISRDDVKNTLYLQMNSLRAEDTAVYLCTKTHSGLIVNDAFDIWGQGTMVTVSS
VL: DIQLTQSPSSLSASVGDRVTITCRASQSISSYLNWYQQKPGKAPKLLIYDASSLESGVPSRFSGSGSGTDATLTISSLQPEDFATYYCQQSYSTPLTFGGGTKVEIK
On to B5, for which the off-rate (koff) in test [15] was found to be 0.000221 s⁻¹. In test [17], this molecule displayed a Kd of 0.0282 nM.

What is called EC50 is the concentration that produces a half-maximal response. A low value points to a more potent agent. In general, koff refers to the first-order rate constant of dissociation. What is called kon is the second-order rate constant of association. The low end stands for slow association, the high end for fast association. One may read the IC50 as the concentration needed to halve the response being measured. High values mean lower potency, low ones higher potency. A word on the % Inhibition: it is the relative decrease from the control value, in per cent.
